In the DeepSol protein solubility set:

Experiment: soluble on expression in E. coli; label from the status in PepcDB or PDB records

| Sequence | soluble on expression in E. coli |
| --- | --- |
| MPMFAWKGKRDKSMKVSVVIPVHNEASTLSKVLAEVKKLEPYEIIIVDNGSTDGTKEIALQHHCRVIYYNHSLGNDVGRAIGAREAKGEIVLFLDGDIVMKSEELYPFIKGIQQGHQIVLNNLTWSVYLKVRPHYTTVGKYMLNRYLNKKEFVVGSLIAIPHAISREVIEKLGWWNLADPALFQAMAMSRGVDISDMASVDVIYTNKVRPVHTGTSPDSPYPKATSRIMGDHLRALQYITETYGKRGGFSEGNRDREFIGKYKPVVLKKEKAKYSAIIPVSEEKTTIRSVIQEVKKAGVDEIIIVANGADIETIKQVNLENVIVVEVTKTLGNNVARAIGAMHATAEICLFVDGDYAIPAKKLVPFLRAIEDGSDMALNDLQCLLDIFHPADPISMGKYFVNLVAKRPDLWNNSLTAVPHAIRKKVIEKIGYDSLIIPPLAQMKAILEGFSITTVEFVDVIKTNRVRPEQHEFVNGRISAFDRIFGDQLEAIAYLLQHTDERGGFTDGDRDREIIQQLRREEENTNEY | not soluble |
| MVLKERHKKICLLPSYSRLAHYPGLLMLTTLIYRSHIRGDEPVKKIEEMVSIANRRNMRSDVTGILLFNGSHFFQLLEGPEEQVQMIYRAICQDPRHYNIVELLCDYAPARRFGKAGMELFDLRLHERDDVLQAVFDKGTSKFQLTYDDRALQFFRTFVLATEQSTYFEIPAEDSWLFIADGSDKELDSCTLSSNINDHFAFHPIVDPLSRRIIAFEAIVQKNEDSPSAIAVGQRKDEEIYTADLKSKALAFAMAHALKLGDKMISINLLPMTLVNKPDAVSFLLDEIKANALVPEQIIVEFTESEVISRFDEFAEAVKSLKAAGISVAIDHFGAGFAGLLLLSRFQPDRIKISQELITNVHKSGPRQAIIQAIMKCCTSLEIQVSAMGVATPEEWMWLESAGIEMFQGDLFSKAKLNGIPSVAWPEKK | not soluble |
| MGSDKIHHHHHHMNEGKILSGLLAPHPPHLVYGENPPQNEPRSQGGWEPLRWAYDQVRENIEHLKPDVLIVHSPHWITQVGHHFLGVPRLTGRSVDPIFPNLFRYDFGMNVDVELAEACCEEATKLGLVSKMMRNPSFRVDYGTITTLHMVRPQWDIPVVGISANNTPYYLNTKEGLGEMDLLGRATREAIRKTGRRAVLLASNTLSHWHFHEEPALPEDMSKEHPERYDGYLWDVRMIELMRKGHMKEVFELLPQFIEEAFAEIKSGAFTWMHAAMGYPELAGKLHGYGTVIGTGNAVIEWNLEDVGLSRLESVA | not soluble |
| MLNQKIQNPNPDELMIEVDLCYELDPYELKLDEMIEAEPEPEMIEGLPASDALTPADRYLELFEHVQSAKIFPDSKTFPDCAPKMDPLDILIRYRKVRRHRDFDLRKFVENHFWLPEVYSSEYVSDPQNSLKEHIDQLWPVLTREPQDHIPWSSLLALPQSYIVPGGRFSETYYWDSYFTMLGLAESGREDLLKCMADNFAWMIENYGHIPNGNRTYYLSRSQPPVFALMVELFEEDGVRGARRYLDHLKMEYAFWMDGAESLIPNQAYRHVVRMPDGSLLNRYWDDRDTPRDESWLEDVETAKHSGRPPNEVYRDLRAGAASGWDYSSRWLRDTGRLASIRTTQFIPIDLNAFLFKLESAIANISALKGEKETEALFRQKASARRDAVNRYLWDDENGIYRDYDWRREQLALFSAAAIVPLYVGMANHEQADRLANAVRSRLLTPGGILASEYETGEQWDKPNGWAPLQWMAIQGFKMYGDDLLGDEIARSWLKTVNQFYLEQHKLIEKYHIADGVPREGGGGEYPLQDGFGWTNGVVRRLIGLYGEPLEHHHHHH | not soluble |
| MASYDKISDGWYRVCPKRSSNRALITVKLPFSTLFRLKPMTDITPFANRLGKNIKHLMKWAKRNGIEAWRIYDRDIPQFPFAADVYGDRIHLQEYDTGWLMRPEEYEAWLAEVLEAVAFVTGFAPEQIRLKRRERQKGLQQYEKTGKAGDDFVITENGRKFWVNLDKYLDTGLFLDHRNTRKKVGETAAGKRFLNLFSYTGSFTVYAATGGAASSETVDLSNTYLDWAKRNFELNGIDTERHKIVRADVFQYLQTAYGEGRRFDLIVMDPPSFSNSKKMSDILDIQRDHKKLIDGAVKLLASDGILYFSNNLRSFVLDDLVSEQYAVKDISKQSVPEDFRNKKIHRCWEIRHKS | not soluble |
| MHITLRQLEVFAEVLKSGSTTQASVMLALSQSAVSAALTDLEGQLGVQLFDRVGKRLVVNEHGRLLYPRALALLEQAVEIEQLFREDNGAIRIYASSTIGNYILPAVIARYRHDYPQLPIELSVGNSQDVMQAVLDFRVDIGFIEGPCHSTEIISEPWLEDELVVFAAPTSPLARGPVTLEQLAAAPWILRERGSGTRDIVDYLLLSHLPKFEMAMELGNSEAIKHAVRHGLGISCLSRRVIEDQLQAGTLSEVAVPLPRLMRTLWRIHHRQKHLSNALRRFLDYCDPANVPR | not soluble |
| MSSKPRHDWFQSETDVTLTILKRGVPLDDCSVSLSDNNTLTVKQCDEILFYGQLSGQVKKDDLTVKCTAAKVEVRLPKFARNERWASLLKDGQGVAASVQSVSPNPESAPTTTVKKNWDAIEKQAVKEEEDESLEGDAAVNKMFRKMYNDASDDVRRAMMKSYSESNGTVLSTNWSEIGQKKTECQPPACMEYKEYEK | not soluble |
| MTGKLYGNKDNFRTQKVLIAAKLANKTVTLAGDAAPADKFPLGVTPAFEGDALLFGAESIGLHLTGTSANAETVQWLQFAEGYLLPAVLGYVLPSVSAANFDKKTVEQYKNELNGQLQVLDRVLVKKTYLVGERLSLADVSVALDLLPAFQYVLDANARKSIVNVTRWFRTVVNQPAVKEVLGEVSLASSVAQFNQAKFTELSAKVAKSAPKAEKPKKEAKPAAAAAQPEDDEPKEEKSKDPFQDMPKGTFVLDNFKRSYSNEDTATKAIPHFWENFDADNWSIWKCEYKYPEDLTLAFMSCNLINGMYQRLEKLKKNAFASMILFGTDNNSTISGIWVWKGDKLAFELSPDWQVDYESYTWTKLDAKSDATKKEVNEYLMWEGDFGGKKFNQGKIFK | soluble |
| MTVERIAEQPLDSELGHFNLITYRDSVEGDVHLALTLGKVCAEEPTLVRVHNMDPLRDLLQVNQPGRWSLRAAMTKVAEAGSGVVLLLGHQIGGDDLLAHVREIASAPAPAPKATTTYSTVGAGSQILRDLGVRKMRLLSAPMRFNAISGFDLEVVEYLPA | soluble |
| MSLTRIQLVISDVDGTLVTTDKRLTDRARDAVSRLEASGVGFTLTSSRPPVGMRMYSDPLGITLPLGPFNGSSIVTPTLDVLEQHLIPDSAATISIELFERSGIDIWLFTNDNWYIRRDDGKYVVHEERTIRFSPTMAEDLTPFAGKACKIVGVSADFALLKRCEPELQAALGDRALAVRSQDYYLDVTPPGRSKGTFVATMAERLGIAADAIATIGDMQNDLPMFGVSGLPIAMGNAADDIKQQAAHVTGRNDDDGFAAAIDFILEHNARVGEGHHHHHH | soluble |
| MARFSGKVALITGSSNGIGRAAAILFAQQGAKVTITGRNAERLKETRHEIKKSGIPAENILAIVADVITDEGQMRLINDTVRKFGHLDILVNNAGGALMDAQGRVGMDQDISVFDNTMQINMRSVVTLVQKAKEHLIKSKGEIINVSAMAAGHHGDPIATFYGMSKAALDQFTRSSAISLIQHGVRVNSVSPGFTKTGFGEAMGFPPIAMKKVISFYESHKECAPSGAIAQPGDIAQVILFLADRTMSSYIIGQSIIADGGSSLVMGMHAHDMLDILKA | not soluble |
| SLERLIRGMQYHYQWLTPFDAKRTTVVCLHGFTGTLATFAAVFPSQTPYNVLGIDLPGHGATASLVAPERYTMKQVCHDIAELTESLNLPCFCLLGYSMGARTALGFALHYPQKVQHLLLESGSPGLATAAERQARICQDHRLAERLLEEPLVDFIDFWQELPLFQTQKALSVAQQMAIRQERLSQSAFGLVSSLWYMGTGAQESYWERLAELQPIPTDLLVGGEDQKFIGIAKKMQARQPLLRLTIFPEAGHCIHLEQPTIFYEKVTALLEGAI | soluble |
| MHLPQMGYDRAITVFSPDGRLFQVEYAREAVKRGATAIGIKCKEGVILIADKRVGSKLLEKDTIEKIYKIDEHICAATSGLVADARVLIDRARIEAQINRLTYDIPITVKELAKKICDFKQQYTQYGGVRPFGVSLLIAGVNEVPKLYETDPSGALLEYKATAIGMGRMAVTEFFEKEYRDDLSFDDAMVLGLVAMGLSIESELVPENIEVGYVKVDDRTFKEVSPEELKPYVERANERIRELLKK | soluble |
| GAMDAEGLALLLPPVTLAALVDSWLREDCPGLNYAALVSGAGPSQAALWAKSPGVLAGQPFFDAIFTQLNCQVSWFLPEGSKLVPVARVAEVRGPAHCLLLGERVALNTLARCSGIASAAAAAVEAARGAGWTGHVAGTRKTTPGFRLVEKYGLLVGGAASHRYDLGGLVMVKDNHVVAAGGVEKAVRAARQAADFALKVEVECSSLQEAVQAAEAGADLVLLDNFKPEELHPTATVLKAQFPSVAVEASGGITLDNLPQFCGPHIDVISMGMLTQAAPALDFSLKLFAKEVAPVPKIH | soluble |
| MHDHMITFQLATHFLSRIALRLEYLFKTINEACNESHEVIHRFALKNIIEIVEIVEKPELKSRFIKELIRIEHVLKKANLLNHSELFDDLETQIHVLNHVPGRFSNKIHDDEFLKTLRQIHHPNTKECEFNSPHLVLWFDSDPLMRQKTISQWVSCLKDLEDTVKIYLSLLRGVTQYTPIRANNGFYQHSLSPKSLNHLILLRIDKKLKMIPKIQLGHHSLTIRLYELVTGQEIRDKTIEMEIAFCQI | not soluble |
| MKVLFVCSGGMSSAIVVNALKKEAEKKGVNMEVHAIGTSEVEEEVKNGWDVVMVAPQVRHRFDSVKKFAEEESIPCGIIPPQAYTPLGGPTLLKTVNDLIR | not soluble |
| VVTSVADENVASRIASWGTGPAPDPRLDYAHAHLKGRRGRSPARPNAPIGARSFAVGRKICRVERFTLLEHGFVGHALHRVPCAGLVALVMSACSLAVCREVGNYAQRRVGRFAFFEQTFVRHALTPRCSRTDSKTSYTQLNRICKFPPHWV | not soluble |
| MSIERSSPIPLYFQLAGELRAAIESGAYPPGSKLPTEGELCQQYDVSRSVVRQALQSLAHDNLIETERGRGAFVLERKVPIALVQQLDPLLESMAKAGFKLTTRVLKQERIKPPAHVAEQIGENDAVFLERLRYADGVVFLVVRNFLPYSRFPDLLQSKELEDVSLYQYLAKRYNAVATTGKRQVELARINEEAIAAQLHVEMNSYVLFNREVTYDQNKQVLEYYESWHHPDRTRLTIDLHRTY | not soluble |
| MSLPPCPQCASEYTYEDGGQYICPECAHEWNETESAADLAAQVRDANGAVLQNGDTVILIKDLKVKGSSMVIKQGTKVKGIRLQEGDHNIGCKIDGSAMNLKSEFVKKA | not soluble |
| MSRPQFTSLRLSLLALAVSATLPTFAFATETMTVTATGNARSSFEAPMMVSVIDTSAPENQTATSATDLLRHVPGITLDGTGRTNGQDVNMRGYDHRGVLVLVDGVRQGTDTGHLNGTFLDPALIKRVEIVRGPSALLYGSGALGGVISYDTVDAKDLLQEGQSSGFRVFGTGGTGDHSLGLGASAFGRTENLDGIVAWSSRDRGDLRQSNGETAPNDESINNMLAKGTWQIDSAQSLSGLVRYYNNDAREPKNPQTVGASESSNPMVDRSTIQRDAQLSYKLAPQGNDWLNADAKIYWSEVRINAQNTGSSGEYREQITKGARLENRSTLFADSFASHLLTYGGEYYRQEQHPGGATTGFPQAKIDFSSGWLQDEITLRDLPITLLGGTRYDSYRGSSDGYKDVDADKWSSRAGMTINPTNWLMLFGSYAQAFRAPTMGEMYNDSKHFSIGRFYTNYWVPNPNLRPETNETQEYGFGLRFDDLMLSNDALEFKASYFDTKAKDYISTTVDFAAATTMSYNVPNAKIWGWDVMTKYTTDLFSLDVAYNRTRGKDTDTGEYISSINPDTVTSTLNIPIAHSGFSVGWVGTFADRSTHISSSYSKQPGYGVNDFYVSYQGQQALKGMTTTLVLGNAFDKEYWSPQGIPQDGRNGKIFVSYQW | not soluble |
